Test results: the domain aggregation screens of Martell et al. (2025)

Assay: soluble fraction after stress (log2 fold change); higher = more stays soluble; pooled small domains, quantitative proteomics
Settings: stress: 50 degC
Procedure, shortened: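 Each library was heated to 50°C as a stress step. The libraries, made up of small protein domains, were pooled and analysed at high throughput by quantitative proteomics. The reported value is the base-two logarithm of the fold change in each protein's soluble amount after stress, taken as a measure of aggregation propensity. The higher the value, the more protein stays in solution.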
With “HMVKDYIQVTVNKEPVILKGKKDYIFIDIFNYIEFDLTIPKGSLYLLLNGKNAGYHDKLLDGDVIELGW” the “soluble fraction (log2)” value was -1.72.
For “HMSMRILNHTVVKILKRYRIATDEQLQPLLDEAERSGRSLQDVVLDAKLVSETELTKLFADYAD”, the “soluble fraction (log2)” value was -0.0864.
For “HMKRIHLSDEEKTDLESLHYSSNDGKQRDRIKAVLLRSEGWTVPMISQALRIHETTVTRYLNDYREGKLKN”, the “soluble fraction (log2)” value was 0.00871.
In the case of “HMVDLDIENYELEDILNLFRLQYNFVEADLKRAYRMALKLHPDKSGLDGEYFRFYMKAYKIVENIFNFRNR”, the “soluble fraction (log2)” value is reported as -1.78.
For “HMYSYSFTSSEGSTFEGQLIRVEESQVTILRYADQKEFSIPKSRFIEADQVYFERWAIENPQL”, the “soluble fraction (log2)” value was -4.33.
In the case of “HMAESSLPKMPRDESKYIYHSVQPGETVYSLSKRYSVSESDIVKSNPGIDITKLSLGLEVAIPRI”, the “soluble fraction (log2)” value is reported as 0.354.
For “HMRVDYKTQLQELLQRQGAAAPQYRLLVEEGPAHLRRFQVGVYFQGRLLGTGWGRNKKEAEQEAARQALMP”, the “soluble fraction (log2)” value was -0.494.
With “HMRESLSEAERHPRYLEGEDVVRMFLLMGDLSRVEAEVIALQWNAQEADRVGLPQDAKVFRTRAR” the “soluble fraction (log2)” value was -0.511.
With “HMSYGDLTGRTVVITGASKGIGARASRVLAQAGASVVGLARSVDELTALKYDLENDGLSFDFG” the “soluble fraction (log2)” value was ≥ 0.62.
For “HMDDPDALITDSQLKAIHVLLGKLKIDDNLKHAYIADVLQLKDIPETLKTLTKHQGSTIIERLNLLIKDA”, the “soluble fraction (log2)” value was 0.0419.
In the case of “HMTTYVNGSWSGWNGSTVVKLTDGSVWRQAEYHYEYHYAYRPQARLERDELFVEGMSRGVRV”, the “soluble fraction (log2)” value is reported as -0.104.
For “HMQNEKLSYFVTETIVTERADLFITKKFPQFSRSQIQKLINSGNITINSNPIKASTEIINKDNIEITIPV”, the “soluble fraction (log2)” value was -1.14.
For “HMQTYTYYIAKNDISIGQKITPDMLIEKQVNLGDSKDRYLSREQLETGKYIAVRQIPAGELISSASANE”, the “soluble fraction (log2)” value was 0.157.
In the case of “HMQPPLTPRELGVLQWAAEGKTTRDTSAILQIHQRTVEMHLKSAREKLDALNTTHAVARALAHGFILPPS”, the “soluble fraction (log2)” value is reported as -0.0855.
With “HMAEATATVTASEMVVRSGPSSSYSVLGSLEKGTVVTVLAASDGIAKISYKGNTGYARIVDMELNSA” the “soluble fraction (log2)” value was -0.0414.
For “HMNLLGDNIRKLRLEKGLGLNEVARLANITGGYLSSIENNKRTNVGTEILESIAKAIGVSVSDFYL”, the “soluble fraction (log2)” value was -0.0298.
For “HMVNHVGITVSNLERSIQFYEALTGKKIANQDTIGGKRMAQTQGLADTLIKYANLHLDNLNIDLLEYVE”, the “soluble fraction (log2)” value was -0.386.
For “HMTLDDSIALGRSLLDKGLMDFGTNLANLAEDKLRDFLSQQRYENLDDLFADIARGNRLPMFTAQQLLS”, the “soluble fraction (log2)” value was -0.187.
With “HMKVKGVYQLDNGYWGYRFTMLVNGKTVSQRRVKDESGNPFKTEKKAEKARLVAMAEEQTKANK” the “soluble fraction (log2)” value was -2.11.
With “HMKMVSTPTGTRISLTQVKEFISNASFDDMKEILLEVLAWFKAHNLGNPFNYNRAFEFIVAH” the “soluble fraction (log2)” value was 0.102.
In the case of “HMTDAELDLLTPREQEVLQLIARGYLYKEIARRLGISVKTVEAHASSVLRKLQLSTRHELSHWAAQRH”, the “soluble fraction (log2)” value is reported as -0.258.
In the case of “HMGQGEISVPRLEGLSLRETSELLGLFGLRLEAAGSGIALSQNPPAGARVKAGDVIQVDFGEPGN”, the “soluble fraction (log2)” value is reported as 0.0136.
With “HMTMTKELGQRIRAERTARKMTQEELAERADLHPTYIGQVERGEKSLTIASLEKIVEGLGISFSDLFEN” the “soluble fraction (log2)” value was -0.0406.
For “HMEWNREQLEQIVLQHIRKHGFITRATYTELTGRLKNSALADLKSFAAEGIIKRVGRGNQMHFIVPL”, the “soluble fraction (log2)” value was -2.42.
For “HMALALSGVDLNRNRLTISWQTSKGVSYRVQRSSDLQSWTDVGAERLGNGNRLSHTQALNTESAFLRVII”, the “soluble fraction (log2)” value was -0.0897.
In the case of “HMNKKETRLNNFIHFLKIRNSITVKEMANHLNVSEMTVRRDIKELTADHTINFENGKIMFNPQSSL”, the “soluble fraction (log2)” value is reported as -1.06.
For “HMTSLTDDELSVVMLVREREISFDEITSETGFDAARLNSVLTMLKIKGIIDETTGKHYRISGGA”, the “soluble fraction (log2)” value was 0.146.
With “HMSYQNKLNYLINAFGGADNFQKLLGVGPSAISNYKSRKHLPLNQAKRLSKIAPQFGFSLDPHSLQIST” the “soluble fraction (log2)” value was -0.377.
For “HMEPTPREIVVQQLGYRGLEVLGNAEYQFPKETQIIILKLAELISSGSVTETLEGGKLLALFRGVGINVR”, the “soluble fraction (log2)” value was -1.59.
For “HMNAVYPNPFVSEIYIGENNRSVEIYNLNGGLVYGMSQPSSRIDVSGLAAGSYILIKKDSSGHISSHKIMK”, the “soluble fraction (log2)” value was 0.0698.
